In patent publication US7531345B2, “Mutations for enhanced tyrosine production” (Massachusetts Institute of Technology, priority 2005, dated 2009):
Values joined by “and” are separate entries in the source; they are usually repeats but may differ in a detail not shown here. Equal values may be shown once.

Key:
[1] = tested on: E. coli DH5α; test: Growth of E. coli DH5α strains in the presence of m-fluoro-D,L-tyrosine (OD600); format: cell-based, Escherichia coli
Experimental: The growth in E. coli DH5α strains harboring eight different plasmids are presented: −, pZE21::tyr^WT; +, pZE21::tyrA^fbr-5; ▪, pZE21::tyrA^fbr-7; ▴, pZE21::tyrA^fbr-10; ♦, pZE21::tyrA^fbr-13; ▾, pZE21::tyrA^fbr-15; ? , pZE21::tyrA^fbr-18; ●, pZE21::tyrA^fbr-20. […] E. coli cells were cultivated in MOPS-buffered minimal medium containing m-fluoro-D,L-tyrosine. After incubation at 37° C. at 225 rpm on a rotary shaker for 20 h, the optical density at 600 nm (OD600) was measured.
Nucleotide analogue mutagenesis was carried out in the presence of 2 and 20 μM […] (8-oxo-dGTP) and 6-(2-deoxy-β-D-ribofuranosyl)-3,4-dihydro-8H-pyrimido-[4,5-c][1,2]oxazin-7-one (dPTP) (Zaccolo, M., D. et al. 1996, J. Mol. Biol. 255: 589-603). Using the plasmid pZE21::tyrA^WT as template, 10, 20 and 30 amplification cycles with the primers mentioned above were performed. The 1.1 kbp PCR products were gel-purified, and the mutated tyrA genes were amplified in a second PCR reaction under regular conditions. Subsequently, the gel-purified DNA fragments were pooled, digested with KpnI and MluI, ligated into pZE21-MCS1, and transformed to highly competent E. coli DH5α cells (Invitrogen). Putative tyrA^fbr mutants were selected on minimal medium agar plates with 20 μg/ml kanamycin and 2 mM m-flouro-D,L-tyrosine.
Mutants of the tyrA gene from E. coli K12 were generated by error-prone PCR and cloned into pZE21-MCS1. […] From 621 obtained tyrA^fbr mutants, seven mutants were chosen for detailed analyses.

[2] = biological target: prephenate dehydrogenase (PDH) activity of TyrA (CM/PDH) protein (Escherichia coli, UniProt P07023); test: PDH activity measurement with purified TyrA proteins (NADH formation, 340 nm); format: biochemical, Escherichia coli K12; settings: 20 μM tyrosine, purified protein (FIG. 2)
Chain of prephenate dehydrogenase (PDH) activity of TyrA (CM/PDH) protein (Escherichia coli, UniProt P07023) (P07023 whole entry): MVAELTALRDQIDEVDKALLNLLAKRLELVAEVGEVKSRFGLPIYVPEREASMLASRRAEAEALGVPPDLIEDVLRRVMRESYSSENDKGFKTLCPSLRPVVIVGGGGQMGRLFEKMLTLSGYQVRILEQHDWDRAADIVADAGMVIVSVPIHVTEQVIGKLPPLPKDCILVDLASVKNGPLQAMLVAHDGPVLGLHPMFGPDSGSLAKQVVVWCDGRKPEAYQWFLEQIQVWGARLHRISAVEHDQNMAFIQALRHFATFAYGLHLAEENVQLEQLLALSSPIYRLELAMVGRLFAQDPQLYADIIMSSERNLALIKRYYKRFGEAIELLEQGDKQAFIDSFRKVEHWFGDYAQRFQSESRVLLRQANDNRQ
Experimental: (§1) For high expression levels of the tyrA^fbr genes, the respective pET30::tyrA^fbr plasmids were transformed to E. coli BL21 (DE3) competent cells (Novagen). The cells were cultivated in LB medium plus 20 μg/ml kanamycin and 1 mM isopropyl-β-D-thiogalactoside (IPTG). After reaching an OD600 of ˜1, the cells were collected by centrifugation, resuspended in binding buffer (20 mM Tris/HCl, 0.5 M NaCl, 5 mM imidazole, pH 7.9), and disrupted by sonication with a Branson Sonifier 450. The cell extract was centrifugated at 10,000×g for 15 min, and the supernatant was filtered through a 0.45 μm syringe filter (PALL Gelman Laboratory). The native His6-tagged TyrA protein was purified by pre-charged His-Bind column chromatography according to the manufacturer's protocol (Novagen). The eluated protein solution was desalted by Econo-Paco®10DG columns (Biorad) and concentrated by Centriprep®YM10 centrifugal ultrafiltration devices (Millipore). Expression and purification steps were controlled by SDS-PAGE (Laemmli, U. K. 1970. Nature 227: 680-685). […]
(§2) PDH activities of purified TyrA proteins were determined spectrophotometrically according to NADH formation (Davidson, B. E., and G. S. Hudson. 1987. Methods Enzymol. 142: 440-450). […] The reaction was started by addition of approximately 0.1 μg of enzyme which corresponded to 5-20 μl of enzyme solution, and the absorbance at 340 nm was followed for 2 min. […]

[3] = tested on: prephenate dehydrogenase (PDH) activity of TyrA (CM/PDH) protein; test: as above; format: biochemical, Escherichia coli K12; settings: purified His6-tagged TyrA protein, absence of tyrosine
Experimental: as §1, §2

[4] = tested on: chorismate mutase (CM) activity of TyrA (CM/PDH) protein; test: Chorismate mutase (CM) activity with purified TyrA proteins; format: biochemical, Escherichia coli K12
Experimental: as §1
CM activities were determined spectrophotometrically based on the formation of phenylpyruvate by treatment with HCl (Davidson, B. E., and G. S. Hudson. 1987. Methods Enzymol. 142: 440-450). […] The samples were alkalized with 1 ml of 2.5 M NaOH, and the absorbance was measured at 320 nm according to a blank sample without enzyme. […]

NC(Cc1ccc(O)c(F)c1)C(=O)O (racemic) [m-fluoro-D,L-tyrosine]
concentration of m-fluoro-D,L-tyrosine inhibiting growth ([1]; E. coli DH5α without plasmid): ≥ 0.1 mM
effect on growth of E. coli DH5α harboring plasmid pZE21::tyrA^WT ([1]; selection at ≧2 mM m-fluoro-D,L-tyrosine): inhibits growth

N[C@@H](Cc1ccc(O)cc1)C(=O)O [L-tyrosine]
effect of L-tyrosine on growth inhibited by m-fluoro-D,L-tyrosine ([1]; E. coli DH5α without plasmid, equimolar amounts of L-tyrosine): restored growth

TyrA^WT: wild-type chorismate mutase/prephenate dehydrogenase (T-protein) of E. coli K12, His6-tagged, purified
specific PDH activity in the presence of tyrosine, relative to activity in the absence of tyrosine [2]: less than 10%
PDH activity, 0 μM Tyrosine [3]: 29.8 U/mg and 29.80 U/mg
CM activity, 100 μM Tyrosine ([4]; 100 μM tyrosine in the presence of 100 μM NAD+): 1.23 U/mg
CM activity, 0 μM Tyrosine ([4]; absence of tyrosine): 1.32 U/mg
